Columns and labels:
CD7 antigen (human) [1] = target: CD7 antigen (human) (UniProt P09564); test: cell-based or functional assay
CD7 antigen (human) [2] = target: CD7 antigen (human) (UniProt P09564); test: indirect immunofluorescence with FITC goat anti-mouse IgG on MOLT-3 cells, 10 µg/mL (50 nM) TXU-PAP
CD7 antigen (human) [3] = target: CD7 antigen (human) (UniProt P09564); test: indirect immunofluorescence, flow cytometry on Jurkat cells
CD7 antigen (human) [4] = target: CD7 antigen (human) (UniProt P09564); test: indirect immunofluorescence, flow cytometry on MOLT-3 cells

Chain of TXU-7-PAP immunotoxin (P10297 23-285): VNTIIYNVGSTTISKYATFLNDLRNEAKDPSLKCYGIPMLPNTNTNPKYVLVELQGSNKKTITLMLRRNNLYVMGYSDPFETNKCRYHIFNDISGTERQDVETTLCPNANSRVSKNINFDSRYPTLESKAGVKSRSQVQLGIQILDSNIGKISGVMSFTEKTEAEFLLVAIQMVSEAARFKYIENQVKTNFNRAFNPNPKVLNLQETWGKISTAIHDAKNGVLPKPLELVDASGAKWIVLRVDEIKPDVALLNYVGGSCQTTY

| percent of cells stained (CD7 antigen (human) [3]) [%] | percent of cells stained (CD7 antigen (human) [4]) [%] | Substance | log kill of clonogenic MOLT-3 blasts, serial dilution clonogenic assay, at 1 µg/mL (=5 nM) (CD7 antigen (human) [1]) [logs] | percent of cells positive for cell-surface bound immunotoxin (CD7 antigen (human) [2]) [%] |
| --- | --- | --- | --- | --- |
| – | – | TXU-7-PAP immunotoxin (from UniProt P10297 23-285) | 2.8 to 3.7 | 98 |
| 96 | 99 | monoclonal antibody TXU-7 | – | – |

From patent publication US6689362
